In data set [1] the target is T1, MutS (Escherichia coli, UniProt P23909 1-853).
T1 sequence: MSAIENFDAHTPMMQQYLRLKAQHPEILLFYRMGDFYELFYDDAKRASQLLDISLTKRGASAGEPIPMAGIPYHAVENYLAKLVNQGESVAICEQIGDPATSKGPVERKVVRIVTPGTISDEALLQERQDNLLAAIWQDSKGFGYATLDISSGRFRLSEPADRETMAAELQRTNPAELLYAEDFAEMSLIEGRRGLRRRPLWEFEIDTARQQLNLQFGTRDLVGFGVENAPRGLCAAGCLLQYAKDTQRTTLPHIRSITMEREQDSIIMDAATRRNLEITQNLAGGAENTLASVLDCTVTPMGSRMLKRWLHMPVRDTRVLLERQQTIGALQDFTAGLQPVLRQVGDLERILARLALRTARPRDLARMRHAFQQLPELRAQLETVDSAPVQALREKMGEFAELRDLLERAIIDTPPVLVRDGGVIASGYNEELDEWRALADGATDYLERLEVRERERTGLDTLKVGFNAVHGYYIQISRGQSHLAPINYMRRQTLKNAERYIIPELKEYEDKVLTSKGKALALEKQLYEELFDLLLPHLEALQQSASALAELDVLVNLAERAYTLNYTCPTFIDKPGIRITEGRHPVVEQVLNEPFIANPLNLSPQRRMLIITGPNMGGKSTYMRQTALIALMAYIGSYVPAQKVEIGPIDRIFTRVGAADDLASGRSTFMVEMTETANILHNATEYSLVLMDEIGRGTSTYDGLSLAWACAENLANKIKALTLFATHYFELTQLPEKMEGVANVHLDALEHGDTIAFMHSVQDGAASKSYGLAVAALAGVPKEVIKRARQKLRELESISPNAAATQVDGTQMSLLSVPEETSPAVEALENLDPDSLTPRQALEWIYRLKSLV
The data set can be described thus: EMSA; 38-150 nM protein; 20 mM Tris pH 7.6, 5 mM MgCl2, 1 mM DTT, 50 ug/ml BSA, 10 mM KCl, 200 fmol homoduplex competitor, 10-20 fmol labeled DNA in 20 ul; 6% native PAGE 0.5X TBE with. Particulars: protein: recombinant; tags: His; chain copies: 2; label: 32P; blunt. For orientation: Mobility shift assays separate free from complexed probe on a gel.

Data set [2] deals with T1, MutS. Kind of data set: EMSA; no nucleotide; 5 mM Mg2+; homoduplex competitor; 20 mM Tris pH 7.6, 5 mM MgCl2, 1 mM DTT, 50 ug/ml BSA, 10 mM KCl, 200 fmol homoduplex competitor, 10-20 fmol labeled DNA in 20 ul; 6% native PAGE 0.5X TBE with. Conditions: protein: recombinant; tags: His; chain copies: 2; label: 5' 32P; blunt; single G-T mismatch at position 14 of strand 1.

Substitutions are numbered along the chain they refer to.

B1: Homoduplex (dsDNA)
DNA 1: CTAGCAAGCTTTCAATTCTAGAAATTCGGC
DNA 2: GCCGAATTTCTAGAATTGAAAGCTTGCTAG
Take B1: the binding result in the data set with MutS [1] is “no binding”.

B2: G-T mismatch heteroduplex (dsDNA)
DNA 1: B1 DNA 1 with A14G
DNA 2: B1 DNA 2
On to B2, for which, in the data set with MutS [2], the binding signal was > 2 fold Kd of MutS for TP-G4.

These data come from article PMC3437207, “G-quadruplex recognition activities of E. Coli MutS”.
